Test results as given in the MegaScale stability set (Tsuboyama et al. 2023).

B1: 5KPH (parent)
chain: EEKRQVKQVAKEKLLEQSPNSKVQVRRVQKQGNTIRVELELRTNGKKENYTVEVERQGNTWTVKRITRT
B2: EEHEE_rd3_1049 (parent)
chain: TTVKLGDIKVTFDNPEKAKKYAQKLAKIYQLTVHVHGDTIHVK

Variants of: B1
Assay: folding stability dG (cDNA display proteolysis); higher = more stable
Conditions: PBS, room temperature

Variant | folding stability dG [kcal/mol]
EEKRQVKQVAKEKLLEQSPNSKVQVRRVQKQGNTIRVELELRTNGKKENYTVEVERQGNTWTVKRSTRT [I66S] | 2.1
EEKRQVKQVAKEKLLEQSPNSKVQVRRVQKQGNTIRVELELRTNGKKENYTVEVERQGNTWRVKRITRT [T62R] | 3.9
EEKRQVKQVAKEKLLEQSPNSKVQVRRVQKQGNTIRVELELRTNGKKENYTVEVERQGNTWGVKRITRT [T62G] | 3.48
EEKRQVKQVAKEKLLEQSPNSKVQVRRVQKQGNTIRVELELRTNGKKEEYTVEVERQGNTWTVKRITRT [N49E] | 3.61
EEKRQVKQVAKEKLLEQSPNSKVQVRRVQKQGNTIRVELELRTNGKKENGTVEVERQGNTWTVKRITRT [Y50G] | 0.705
EEKRYVKQVAKEKLLEQSPNSKVQVRRVQKQGNTIRVELELRTNGKKENYTVEVERQGNTWTVKRITRT [Q5Y] | 3.64
EEKRQVKQVAKEKVLEQSPNSKVQVRRVQKQGNTIRVELELRTNGKKENYTVEVERQGNTWTVKRITRT [L14V] | 3.65
EEKRQVKQVAKEKFLEQSPNSKVQVRRVQKQGNTIRVELELRTNGKKENYTVEVERQGNTWTVKRITRT [L14F] | 2.92
EEKRQVKQVAKEKLLEQSPNSKVQVRRVQKQGNKIRVELELRTNGKKENYTVEVERQGNTWTVKRITRT [T34K] | 3.4
EEKRQVKQVAKEKLLEQSPNSKVQVRRVQKQGNAIRVELELRTNGKKENYTVEVERQGNTWTVKRITRT [T34A] | 3.62
EEKRQVKQVAKEKLLEQSPNSKVQVRRVQKQGNWIRVELELRTNGKKENYTVEVERQGNTWTVKRITRT [T34W] | 3.65
EEKRQVKQVAKEKLLEASPNSKVQVRRVQKQGNTIRVELELRTNGKKENYTVEVERQGNTWTVKRITRT [Q17A] | 3.68
EEKRQVKQVAKEKLLEQSPNSKVQVRRVQKQGNTIRVELELRTNGKHENYTVEVERQGNTWTVKRITRT [K47H] | 3.94
EEKRQVKQVAKEKLLEQSPNSKVQVRRVQKQGNTIRVELELRTNGKGENYTVEVERQGNTWTVKRITRT [K47G] | 3.03
EEKRQVKQVAKEKLLEQSPNSKVQVRRVQKQGNTIRVELELRTWGKKENYTVEVERQGNTWTVKRITRT [N44W] | 3.67
EEKRQVKQVAKEKLLEQSPNSKVQVRRVQKQGNTIRVELLLRTNGKKENYTVEVERQGNTWTVKRITRT [E40L] | 3.96
EEKRQVKQVAKEKLLEQSPNSKVQVRRVQKQGNTIRVELGLRTNGKKENYTVEVERQGNTWTVKRITRT [E40G] | 2.84
EEKRQVKQVAKEKLLEQSPNSKVQVRRVQKQGNTIRVELELRTNGKKENYTVEVERQGNTWTVKRITRW [T69W] | 4.08
EEKRQVKQVAKEKLLEQSPNSKVQVRRVQKQGNTIRVELELRTNGKKENYTVEVERQGNNWTVKRITRT [T60N] | 4.07
EEKRQVKQVAIEKLLEQSPNSKVQVRRVQKQGNTIRVELELRTNGKKENYTVEVERQGNTWTVKRITRT [K11I] | 4.55
EEKRQVKQVAQEKLLEQSPNSKVQVRRVQKQGNTIRVELELRTNGKKENYTVEVERQGNTWTVKRITRT [K11Q] | 3.45

Variant | folding stability dG [kcal/mol]
EEKRQVKQVAMEKLLEQSPNSKVQVRRVQKQGNTIRVELELRTNGKKENYTVEVERQGNTWTVKRITRT [K11M] | 4.37
EEKRQVKQVAKEKLLEQSPNSKVQVRRVQKQGNTIRVELELRTNGKKENYTVEVERGGNTWTVKRITRT [Q57G] | 3.16
EEKRQVKQVAKEKLLEQSPNSKVQVRRVQKQGNTIRVELELRTNGKKENYTVEVEGQGNTWTVKRITRT [R56G] | 3.19
EEKRQVKQVAKEKLLEQSPNSKVQVRRVQKQGNTIRVELELRTNGKKENYTVEVETQGNTWTVKRITRT [R56T] | 2.83
EEKRQVKQVAKEKLLEQSPNSKVQVRRVQKQGNTIRVELEGRTNGKKENYTVEVERQGNTWTVKRITRT [L41G] | 2.38
EEKRQVKQVAKEKLLEQSPNSKVQVRRVQKQGNTIRVELETRTNGKKENYTVEVERQGNTWTVKRITRT [L41T] | 3.36
EEKRQVKQVAKEKLLEQSPNSKVQVRRVQKQGNTIRVELENRTNGKKENYTVEVERQGNTWTVKRITRT [L41N] | 1.7
EEKRQVKQVAKEKLLEQSPPSKVQVRRVQKQGNTIRVELELRTNGKKENYTVEVERQGNTWTVKRITRT [N20P] | 2.3
EEKRQVKQVAKEKLLEQSPNSKVQVRRVQKQGNTIRVELELRTNGKKENYTVEKERQGNTWTVKRITRT [V54K] | 1.28
EEKRQVKQVAKEKLLEQNPNSKVQVRRVQKQGNTIRVELELRTNGKKENYTVEVERQGNTWTVKRITRT [S18N] | 4.47
EEKRQVKQVAKEKLLEQSPNSKVQVRRVQKQGNTIRVELELRTNGKKENYNVEVERQGNTWTVKRITRT [T51N] | 3.09
EEKRQVKQVAKEKLLEQSPNSKVQVRRVQKQGNTIRVELELRTNGKKENYQVEVERQGNTWTVKRITRT [T51Q] | 3.56
EEKRQVKQVAKEHLLEQSPNSKVQVRRVQKQGNTIRVELELRTNGKKENYTVEVERQGNTWTVKRITRT [K13H] | 3.57
EEKRQVKQVAKEILLEQSPNSKVQVRRVQKQGNTIRVELELRTNGKKENYTVEVERQGNTWTVKRITRT [K13I] | 4.04
EEKRQVKQVAKEKLLEQSPNSKVQVRRVQKQGNTIRVELELRTNGKKENYTVEVERQTNTWTVKRITRT [G58T] | 2.84
EEKRQVKQVAKEKLLEQSPNSKVQVRRVQKQGNTIRVELELRTNGKKENYTVEVERQANTWTVKRITRT [G58A] | 3.33
EEKRQVKQVAKEKLLEQSPNSKVQVRRVQKQGNTIRVELELRTNGKKENYTVEVPRQGNTWTVKRITRT [E55P] | -0.38
EEKRQVKQVAKEKLLEQSPNSKVQVRRVQKQGNTIRVELELRTNGKKENYTVEVGRQGNTWTVKRITRT [E55G] | 3.19
EEKRQVKQVVKEKLLEQSPNSKVQVRRVQKQGNTIRVELELRTNGKKENYTVEVERQGNTWTVKRITRT [A10V] | 3.78
EEKRQVKQVAKEKLLEQSPNPKVQVRRVQKQGNTIRVELELRTNGKKENYTVEVERQGNTWTVKRITRT [S21P] | 2.37
EEKRQVKQVAKEKLLEQSPNSKVQVRRVQKQGNTIRIELELRTNGKKENYTVEVERQGNTWTVKRITRT [V37I] | 3.5

Variant | folding stability dG [kcal/mol]
EEKRQVKQVAKEKLLEQSPNSKVQVRWVQKQGNTIRVELELRTNGKKENYTVEVERQGNTWTVKRITRT [R27W] | 4.14
EEKRQVKQVAKEKLLEQSPNSKVQVRCVQKQGNTIRVELELRTNGKKENYTVEVERQGNTWTVKRITRT [R27C] | 3.45
EEKRQVKQVAKEKLLEQSPNSKVQVRRVQKQGNTIRVELELRTNGKKENYTVEVERQGNTWTVKRITDT [R68D] | 2.65
EEKRQVKQVAKEKLLEQSPNSKVQVRRVQKQGNTIRVELELYTNGKKENYTVEVERQGNTWTVKRITRT [R42Y] | 4.45
EEKRQVKQVAKEKLLEQSPNSKVQVRRVQKQGNTIRVELELLTNGKKENYTVEVERQGNTWTVKRITRT [R42L] | 4.08
EEKRQVKQVAKEKLLEQSPNSKVQVRRVQKQGNTERVELELRTNGKKENYTVEVERQGNTWTVKRITRT [I35E] | 1.93
EEKRQVKQVAKYKLLEQSPNSKVQVRRVQKQGNTIRVELELRTNGKKENYTVEVERQGNTWTVKRITRT [E12Y] | 2.83
EEKRQVKQVAKDKLLEQSPNSKVQVRRVQKQGNTIRVELELRTNGKKENYTVEVERQGNTWTVKRITRT [E12D] | 4.17
EEARQVKQVAKEKLLEQSPNSKVQVRRVQKQGNTIRVELELRTNGKKENYTVEVERQGNTWTVKRITRT [K3A] | 4.28
EEKRQVKQVAKEKLLEQSPNSKVQVRRVQYQGNTIRVELELRTNGKKENYTVEVERQGNTWTVKRITRT [K30Y] | 4.7
EEKRQVKQVAKEKLLEQSPNSKVQVRRVQSQGNTIRVELELRTNGKKENYTVEVERQGNTWTVKRITRT [K30S] | 4.32
EEKRQVKVVAKEKLLEQSPNSKVQVRRVQKQGNTIRVELELRTNGKKENYTVEVERQGNTWTVKRITRT [Q8V] | 3.31
EEKRQVKQVAKEKLLEQSPNSKVQVRRVQKQGNTIRVELELRTNDKKENYTVEVERQGNTWTVKRITRT [G45D] | 3.57
EEKRQVKQVAKEKLLEQSPNSKVQVRRVQKQGNTIRVELELRTNGKKENYTVEVERQGNTWTVERITRT [K64E] | 2.86
EEKRQVKQVAKEKLLEQSPNSKVQVRRVQKQGKTIRVELELRTNGKKENYTVEVERQGNTWTVKRITRT [N33K] | 3.75
EEKRQVKQVAKEKLLEQSPNSKVQVRRVQKQGNTIRVCLELRTNGKKENYTVEVERQGNTWTVKRITRT [E38C] | 3.66
EEKRQVKQVAKEKLLEQSPNSKVQVRRVQKQGNTIRVQLELRTNGKKENYTVEVERQGNTWTVKRITRT [E38Q] | 3.76
EEKRQVKQVAKEKLLEQSPNSKVKVRRVQKQGNTIRVELELRTNGKKENYTVEVERQGNTWTVKRITRT [Q24K] | 4.33
EEKRQVKQVAKEKLLEQSPNSKVMVRRVQKQGNTIRVELELRTNGKKENYTVEVERQGNTWTVKRITRT [Q24M] | 4.43
EEKRQVKQVAKEKLLEQSPNSKVGVRRVQKQGNTIRVELELRTNGKKENYTVEVERQGNTWTVKRITRT [Q24G] | 3.09
EEKRQVKQVAKEKLLEQSMNSKVQVRRVQKQGNTIRVELELRTNGKKENYTVEVERQGNTWTVKRITRT [P19M] | 2.71

Variants of: B2
Assay: as above
Conditions: PBS, room temperature

Variant | folding stability dG [kcal/mol]
TCVKLGDIKVTFDNPEKAKKYAQKLAKIYQLTVHVHGDTIHVK [T2C] | 2.33
TAVKLGDIKVTFDNPEKAKKYAQKLAKIYQLTVHVHGDTIHVK [T2A] | 1.22
TEVKLGDIKVTFDNPEKAKKYAQKLAKIYQLTVHVHGDTIHVK [T2E] | 1.06
TDVKLGDIKVTFDNPEKAKKYAQKLAKIYQLTVHVHGDTIHVK [T2D] | 1.01
YTVKLGDIKVTFDNPEKAKKYAQKLAKIYQLTVHVHGDTIHVK [T1Y] | 2.52
HTVKLGDIKVTFDNPEKAKKYAQKLAKIYQLTVHVHGDTIHVK [T1H] | 1.56
KTVKLGDIKVTFDNPEKAKKYAQKLAKIYQLTVHVHGDTIHVK [T1K] | 1.19
MTVKLGDIKVTFDNPEKAKKYAQKLAKIYQLTVHVHGDTIHVK [T1M] | 2.14
CTVKLGDIKVTFDNPEKAKKYAQKLAKIYQLTVHVHGDTIHVK [T1C] | 3.02
FTVKLGDIKVTFDNPEKAKKYAQKLAKIYQLTVHVHGDTIHVK [T1F] | 2.42
QTVKLGDIKVTFDNPEKAKKYAQKLAKIYQLTVHVHGDTIHVK [T1Q] | 1.06
STVKLGDIKVTFDNPEKAKKYAQKLAKIYQLTVHVHGDTIHVK [T1S] | 1.23
DTVKLGDIKVTFDNPEKAKKYAQKLAKIYQLTVHVHGDTIHVK [T1D] | 0.651
RTVKLGDIKVTFDNPEKAKKYAQKLAKIYQLTVHVHGDTIHVK [T1R] | 1.28
NTVKLGDIKVTFDNPEKAKKYAQKLAKIYQLTVHVHGDTIHVK [T1N] | 1.1
ITVKLGDIKVTFDNPEKAKKYAQKLAKIYQLTVHVHGDTIHVK [T1I] | 2.27
LTVKLGDIKVTFDNPEKAKKYAQKLAKIYQLTVHVHGDTIHVK [T1L] | 1.76
PTVKLGDIKVTFDNPEKAKKYAQKLAKIYQLTVHVHGDTIHVK [T1P] | 1.02
ETVKLGDIKVTFDNPEKAKKYAQKLAKIYQLTVHVHGDTIHVK [T1E] | 0.641
ATVKLGDIKVTFDNPEKAKKYAQKLAKIYQLTVHVHGDTIHVK [T1A] | 1.43
VTVKLGDIKVTFDNPEKAKKYAQKLAKIYQLTVHVHGDTIHVK [T1V] | 2.14
WTVKLGDIKVTFDNPEKAKKYAQKLAKIYQLTVHVHGDTIHVK [T1W] | 2.77
GTVKLGDIKVTFDNPEKAKKYAQKLAKIYQLTVHVHGDTIHVK [T1G] | 0.959
